Measurements from the DeepSol protein solubility set.

Experiment: soluble on expression in E. coli; label from the status in PepcDB or PDB records

Sequence	soluble on expression in E. coli
MAVNVYSTSVTSDNLSRHDMLAWINESLQLNLTKIEQLCSGAAYCQFMDMLFPGSIALKKVKFQAKLEHEYIQNFKILQAGFKRMGVDKIIPVDKLVKGKFQDNFEFVQWFKKFFDANYDGKDYDPVAARQGQETAVAPSLVAPALNKPKKPLTSSSAAPQRPISTQRTAAAPKAGPGVVRKNPGVGNGDDEAAELMQQVNVLKLTVEDLEKERDFYFGKLRNIELICQENEGENDPVLQRIVDILYATDEGFVIPDEGGPQEEQEEY	soluble
GKIILFEDVEFGGKKLELETSVSDLNVHGFNDIVSSIIVESGTWFVFDDEGFSGPSYKLTPGKYPNPGSWGGNDDELSSVKQQ	soluble
MALLAEHLLRPLPADKQIETGPFLEAVSHLPPFFDCLGSPVFTPIKADISGNITKIKAVYDTNPTKFRTLQNILEVEKEMYGAEWPKVGATLALMWLKRGLRFIQVFLQSICDGERDENHPNLIRVNATKAYEMALKKYHGWIVQKIFQAALYAAPYKSDFLKALSKGQNVTEEECLEKVRLFLVNYTATIDVIYEMYTRMNAELNYKV	soluble
MSLSDGNITFAYSYPIKAFEKFLGYYDRENRIAFNPSISMRTDFSFCLAACRYRKNGKTDTVVLDGYADNKYYKKAKFALDKFRSEYSINGSFDFYIKRYRRYQKAKGLSESSAVAAAVSRALISNVFGDDAAKDDIFVSRYARLVSGSGTRAAHDGISMWLSYPGMDSRDCVAFKVGKSNENLNYGVFPKYSDVATDNAHSIAVNSVFYGTWVSEKFSNVKRLISDHFDINDLLKIGENDMLRLNSILMSGGLIIQTPDSLRILKEILKFKSKNEGFYFTADTGPSIAIFSFDRSLIDEFRENVNDEYIEGSYDFKGYNNEGHHHHHH	not soluble
KIVCDFTEYNPLHKGHKYALEKGKEHGIFISVLPGPLERSGRGIPYFLNRYIRAEMAIRAGADIVVEGPPMGIMGSGQYMRCLIKMFYSLGAEIIPRGYIPEKTMEKVIDCINKGYHIQVKPYKIICIETGEILGEKLNIDNYVIASMSQMIYKLNREGLKFNPKFVFVKRLEGISGTKIREAIFSGKFEDIKNMLPKTTLSILKELYDNGKL	not soluble
RRVVVTGLGMVTPLGRGVETTWRRLIDGECGIRGLTLDDLKMKSFDEETKLYTFDQLSSKVAAFVPYGSNPGEFDEALWLNSKAVANFIGYAVCAADEALRDAEWLPTEEEEKERTGVSIGGGIGSICDIVEAAQLICEKRLRRLSPFFIPKILVNMASGHVSMKYGFQGPNHAAVTACATGAHSIGDATRMIQFGDADVMVAGGTESSIDALSVAGFSRSRALSTKFNSSPQEASRPFDCDRDGFVIGEGSGVIVLEEYEHAKRRGAKIYAELCGYGMSGDAHHITQPPEDGKGAVLAMTRALRQSGLCPNQIDYVNAHATSTPIGDAVEARAIKTVFSEHATSGTLAFSSTKGATGHLLGAAGAVEAIFSILAIHHGVAPMTLNVKNPDPIFDKRFMPLTTSKKMLVRTAMSNSFGFGGTNASLLFASI	soluble
MSLHVGAGKSFGTAEANENERRWNDDKIDRKNQDPTNHYDRTRMKLNFEIGPDGKIHPLGYQEKSLEVRLQERLDELGWKPFKADSKIQPNCCAKFVFGGNHDRTLEMAFGNQSVNLEKGADNSHLHRCEEIENWAKDVYDWCVQIYGQENIVGFQVHLDESSPHIHALVVPVGIRPKSGRKCVMWSAKFGKDRYEYGQILKEMHTFLYEDVGSKYGLERGDSIEGRNVHHLHKRDYIRKLTKEAKQAEKAVKGLQSMMRNLESKIFSYRLQLEETEKELASGKITLDRYEAQKADIQKLIAEYQTKLEDKTDKLHAKEQELERLTADATKARSVVQPFRNHKVDFMPPQITEKVPLFGTDKWVERQNQRIAKQFTEIVRKIESLYRNDAARQVEAAQRNVLADYGELYQLRRENKSLSDTNESLESELNTLLDQLAIPSARNLIFAVADALIGGQPVPVSSGGGGSTSDLPWDGRRSDEEEEAYRRRCLMFAIVTVCKQQTKSRREGHHHHHH	soluble
DALEVAEKVTAVIFDKTGTLTKLKESAKPAVQELKRMGIKVGMITGDNWRSAEAISRELNLDLVIAEVLPHQKSEEVKKLQAKEVVAFVGDGINDAPALAQADLGIAVGSGDIVLIRDDLRDVVAAIQ	soluble
MGSDKIHHHHHHMELQLQNLALSFKNKPNVIHDISLTMNGGSIVGIVAPNGTGKTTLLRLILNDLKPQAGKVLVDGKSYGSQKQSLALHRQMCLFPVQDDLYPDLSGKAHLEYYAKLWHNRSKSVKQIINVLDMRDYINQPVRTYSMGMKQRLCFGMVMAANTPIMLLDEFMNGLDTINVARMSRILRGLRAEGKLIITVSHLLNNLQGYADLIYFMRDGKIIKTIDQHEQQPLYVQVAEENASRLPRMPWEHYPNGMLVLPIQKLPGEHFNQLLLGLAAHHIPFKLGPLDLDTYFNEFYETDQ	not soluble
RSLTMTLEELMNAPAPASRWVLERDCAETGLDPADIRAEMLRRIGEMRSSVERGLQSDARSITGMVGWNAKGLWDAPDVLGAPLLKRVQAYAMAVNEENARMGRIVAAPTAGSAGTIPGALLGVADHLGLSDEQLVDPMILAAGVGKAISKRMFISGAAGGCQAE	not soluble
VAATKASTATDEPVKRTATKSPAASASGAKTGAKRTAAKSASGSPPAKRATKPAARSVKPASAPQDTTTSTIPKRKTRAAAKSAAAKAPSARGHATKPRAPKDAQHEAATDPEDALDSVEELDAEPDLDVEPGEDLDLDAADLNLDDLEDDVAPDADDDLDSGDDEDHEDLEAEAAVAPGQTADDDEEIAEPTEKDKASGDFVWDEDESEALRQARKDAELTASADSVRAYLKQIGKVALLNAEEEVELAKRIEAGLYATQLMTELSERGEKLPAAQRRDMMWICRDGDRAKNHLLEANLRLVVSLAKRYTGRGMAFLDLIQEGNLGLIRAVEKFDYTKGYKFSTYATWWIRQAITRAMADQARTIRIPVHMVEVINKLGRIQRELLQDLGREPTPEELAKEMDITPEKVLEIQQYAREPISLDQTIGDEGDSQLGDFIEDSEAVVAVDAVSFTLLQDQLQSVLDTLSEREAGVVRLRFGLTDGQPRTLDEIGQVYGVTRERIRQIESKTMSKLRHPSRSQVLRDYLD	soluble
QRVKRLLSITNDKHDEYLTEMVPLLVEFAKDECHNPFIDKDGNESIPSGVLIFVAKAAQFYMTNAGLTGRSMDTVSYNFATEIPSTILKKLNPYRKMAR	soluble
MSSRKGTRSSRIVTLERSANSSLSNNGGGDDSFGSTLLETSRLQEKDHLTSLNSRLATYIDKVRQLEQENNRLQVQIRDIEVVEKKEKSNLADRFEAEKARLRRALDSAQDELAKYRIEYDAAKVEVKKLKPQVEKLERELAGAEEQALHAQSIADQSQAKQKTLQARNDKLVVENDDLKKQNITLRDTVEGLKKAVEDETLLRTAANNKIKALEEDLAFALQQHKGELEEVRHKRQVDMTTYAKQINDEYQSKLQDQIEEMRAQFKNNLHQNKTAFEDAYKNKLNAARERQEEAVSEAIHLRARVRDLETSSSGNASLIERLRSELDTLKRSFQEKLDDKDARIAELNQEIERMMSEFHDLLDVKIQLDAELKTYQALLEGEEERLNLTQEAPQNTSVHHVSFSSGGASAQRGVKRRRVVDVNGEDQDIDYLNRRSKLNKETVGPVGIDEVDEEGKWVRVANNSEEEQSIGGYKLVVKAGNKEASFQFSSRMKLAPHASATVWSADAGAVHHPPEVYVMKKQQWPIGDNPSARLEDSEGDTVSSITVEFSESSDPSDPADRCSIM	not soluble
SNKLMELANLQPKRPKTIKQRHVRKKRKIKDMLNTPLCPSHSSLHPVLLPSDVFDQPQPVGNKRIEFHISTDMPAAFKKDLEKEQNCEEKNHDLPATEVDASNIGFGKIFPKPNLDITEEIKEDSDEMPSECISRRELEKGRISREEMETLSVFRSYEPGEPNCRIYVKNLAKHVQEKDLKYIFGRYVDFSSETQRIMFDIRLMKEGRMKGQAFIGLPNEKAAAKALKEANGYVLFGKPMVVQFARSARPKQDPKEGKRKC	soluble
MTPDELARLTGYSRQTINKWVRKEGWTTSPKPGVQGGKARLVHVNEQVREYIRNAERPEGQGEAPALSGDAPLEVLLVTLAKEMTPVEQKQFTSLLLREGIIGLLQRLGIRDSK	not soluble
MGSDKIHHHHHHMSSFSLDFSLGTFQPLAAKMRPQTLKQYCGQEHLIGAGKPLYKAIENGHIHSMIFWGPPGTGKTTLAEIIAQQIHAQVERISAVTAGVKEIRESIERAKQNRLMGQQTILFVDEVHRFNKTQQDAFLPHIENGTIIFIGATTENPSFELNNALLSRVKVYILKPLTTSNIVTVLQNAIQDAEQGLGKERLIFAENVLETLAEYVNGDARLALNCLELMVDMADETEKGKLINHHLLTEVLGERQARFDKQGDRFYDLISALHKSIRGSAPDAALYWYARIITAGGDPLYVARRLLAIASEDVGNADPRAMQVALAAWDCFTRVGAAEGERAIAQAIVYLAVAPKSNAVYVAFKQAKKLAKEMPDYDVPVHLRNAPTHLMKELGYGAEYRYAHDEPNAYAAGEIYFPEELKNTKFYFPTDRGLEIQLKEKLARLHNLDEQSTKKRYK	not soluble
MGPEGALPKASEATVCANNSKVSSPGEKVVLWTREADRVILTMCQEQGAQPHTFSVISQQLGNKTPVEVSHRFRELMQLFHTACEASSEDEDDATSTSNADQLSDHGDLLSEEELDE	soluble
MEYRLFGQVTRALMDASQAPADDIATRIDALDWNRKVWSALATDCALPENQLPMELRASIISLSLWVGRHSSAVMRKEEDFEPLIEINRMIMQGLAGRADAA	not soluble
SVTIDHTTENAAPAQAPVSDRAWALFRALDGKGLVPDGYVEGWKKTFEEDFSPRRGAELVARAWTPRRGAELVARAWTDPEFRQLLLTDGTAAVAQYGYLGPQGEYIVAVEDTPTLKNVIVCSLCSCTAWPILGLPPTWYKSFEYRARVVREPRKVLSEMGTEIASDIEIRVYDTTAETRYMVLPQRPAGTEGWSQEQLQEIVTKDCLIGVAIPQVPTV	soluble
GPGSMVLVLVVGDTWVPQRASGVPEVFCKMFSPGRIHKLLITGGVGSKEMYDYLRTIAPEVHCVTSSVDRQWADHMPESVVLTVEGLKLGLIHGHQVPVGDKDSLAAVQRELDVDVLVSGSTHQSKYFEFDSHLFVNPGSLSGADTEYDVNVVPSFMLLDIQDKSVVTFIYQFHPEDETGGGGTATEDLAAAGMVPGLRIKKKEWAKE	not soluble
MSLNREFDVTAPNQVWCGDITYIWAQGKWHYLAVVMDLYARRVLGWAFSKKSDTDLVIKALDMAYEQRGKPQGLLFHSDQGAQYGSRQFRKRLWRYRVRQSMSRRGNCYDNSPMARVFRSLKTEWIPAVGYMTAQEAQGDISHYLMHRYNRVRPHQFNDGLAPAQYEKTLTSEGHHHHHH	not soluble
MNMVGHSYGNIAIVYYMLQHGSDTSLPKLVKQVDIAGHFNGIIGMDEPEENSLDGEGKPTSMTGSYEELLSLGDNYPQGQVEVLNIYGNTGKESDERVTNLSSQSLAYLLKGHVKSYQEKKITGLNGQHSKLHETTLVDKPLNAFLWGK	not soluble
MGSDKIHHHHHHMNRAATLAAYLTEKNWMSQPVSAGQVSFLAAGEYNENWLVQCGGRAAVLRINHGSQLGLRNQSEYEFSVLRHVASSGLTPQPYALDPLPWKHGPGKGAMLMEYIPGTPPDYRLHAADAARLFARVHGCPLPPRGDMIVQPDPVRDIARESTGLLHRQPDHPRSDIRTRLLNYRDTVLRLADDTAQLFAGEPQVITNTEVNSGNFIVLPPQHPRRGNEQAGVALCLVDWEKAVISCCHQDLGHFLVPTTTRWKTDFTFDAQSRTDFLRAYLQARHGSVDADALEALHLRTRVLERTILLRALSWCFMAWYEYSRGDRTLRNEFTYGRITSYLENIECILKYGE	not soluble
